Reference: patent US20120094909A1 (Bristol-Myers Squibb, published 2012)
Where a chain is given by its changes, count along the chain named. Several values for one entry are separate records, joined by “and”; a condition that tells them apart may be missing. Equal entries are not always repeated. Where two headings read alike, the source gives them in different places. Values belong to the binder of their own block, whether it stands above or below them.

What was measured:
human serum albumin [1] = molecular target: T1, human serum albumin (human, UniProt P02768 25-609); experiment: SPR (Biacore), albumin captured on chip, SABA in flow; n = 6
T1 construct: also called HSA
Protocol: (§1) The kinetics of selected SABA clones purified from HTPP and/or midscaled material described in Examples 5A and 5B were determined by capturing the respective serum albumin (HSA/RhSA/MuSA) on the surface of a Biasensor CMS chip and flowing a concentration series of SABAs over both the reference flow cell and the captured albumins. In addition, binding to albumin was carried out under various pH conditions ranging from pH 5.5 to pH 7.4.

rhesus serum albumin [2] = molecular target: T2, rhesus serum albumin (rhesus, UniProt Q28522 17-600); experiment: SPR (Biacore), albumin captured on chip, SABA in flow
T2 construct: also called RhSA
Protocol: as §1

human serum albumin [3] = molecular target: T1, human serum albumin; experiment: as above
Protocol: as §1

human serum albumin [4] = molecular target: T3, human serum albumin (human, UniProt P02768 25-609); experiment: kinetic analysis, HBS-P buffer
T3 construct: also called HSA

rhesus serum albumin [5] = molecular target: T4, rhesus serum albumin (rhesus, UniProt Q28522 17-600); experiment: kinetic analysis, HBS-P buffer
T4 construct: also called RhSA

murine serum albumin = molecular target: T5, murine serum albumin (mouse, UniProt P07724 25-608); experiment: kinetic analysis and direct binding ELISA (Table 18, FIG. 27)
T5 construct: also called MuSA; mouse serum albumin

rat serum albumin = rat serum albumin (rat, UniProt P02770 25-608); experiment: as above
[6] = molecular target: T6, human PCSK9 (proprotein convertase subtilisin kexin type 9) (human, UniProt Q8NBP7 31-692); experiment: BLI, biotinylated hPCSK9 on sensor tips
T6 construct: Directly immobilized (SPR ProteOn), biotinylated (BLI), or in solution, depending on the assay; also called hPCSK9

[7] = molecular target: T6, human PCSK9 (proprotein convertase …); experiment: KinExA, solution phase
Protocol: Due to technical limitations, the lowest concentration of Adnectins that could be tested was 1 nM.

[8] = molecular target: T6, human PCSK9 (proprotein convertase …); experiment: ITC, 37 C, average of 3 experiments
Protocol: (§2) Solution phase binding was measured in 25 mM HEPES, pH 7.41, 150 mM NaCl at 37° C.

human serum albumin [9] = molecular target: T1, human serum albumin; experiment: SPR (Biacore), albumin captured on chip, SABA in flow; n = 4
Protocol: as §1

[10] = molecular target: T7, human PCSK9 (proprotein convertase subtilisin kexin type 9) (human, UniProt Q8NBP7 31-692); experiment: cell-based or functional assay
[11] = molecular target: T7, human PCSK9 (proprotein convertase …); experiment: cell-based or functional assay; remark: listed apart in the source
[12] = molecular target: T7, human PCSK9 (proprotein convertase …); experiment: ITC, 37 C
[13] = molecular target: T7, human PCSK9 (proprotein convertase …); experiment: SPR (ProteOn), PCSK9 immobilized directly, 25 C
Protocol: (§3) The binding characteristics were characterized by Surface Plasmon Resonance (SPR). […] This allowed kinetic determination in the absence of regeneration. […] Evaluation of the kinetic parameters was performed using the Langmuir interaction model and constant parameter fitting with the ProteOn Manager software.

[14] = molecular target: T7, human PCSK9 (proprotein convertase …); experiment: BLI (Octet Red), 37 C
[15] = molecular target: T7, human PCSK9 (proprotein convertase …); experiment: SPR (ProteOn), 25 C
[16] = molecular target: T7, human PCSK9 (proprotein convertase …); experiment: PCSK9:EGFA FRET, competitor EGFA peptide
[17] = molecular target: T6, human PCSK9 (proprotein convertase …); experiment: FRET, competitor ATI000972
Description: (§4) Table 11 summarizes the overall data from these three FRET assays.

[18] = molecular target: T6, human PCSK9 (proprotein convertase …); experiment: FRET, competitor EGFA peptide
Description: as §4

cynomolgus monkey PCSK9 [19] = molecular target: T8, cynomolgus monkey PCSK9 (cynomolgus monkey, UniProt A0A7N9D9N8 150-747); experiment: FRET, competitor EGFA peptide
Description: as §4

[20] = molecular target: T6, human PCSK9 (proprotein convertase …); experiment: FRET direct binding, anti-his6 antibody
Description: as §4

[21] = molecular target: T6, human PCSK9 (proprotein convertase …); experiment: cell-based or functional assay; remark: listed apart in the source
[22] = molecular target: T6, human PCSK9 (proprotein convertase …); experiment: SPR ProteOn, 25 C
Protocol: as §3

cynomolgus monkey PCSK9 [23] = molecular target: T8, cynomolgus monkey PCSK9; experiment: SPR ProteOn, 25 C
Protocol: as §3

[24] = molecular target: T6, human PCSK9 (proprotein convertase …); experiment: SPR ProteOn, PCSK9 immobilized, 25 C
Protocol: as §3

cynomolgus monkey PCSK9 [25] = molecular target: T8, cynomolgus monkey PCSK9; experiment: SPR ProteOn, PCSK9 immobilized, 25 C
Protocol: as §3

cynomolgus monkey PCSK9 [26] = molecular target: T9, cynomolgus monkey PCSK9 (cynomolgus monkey, UniProt A0A7N9D9N8 150-747); experiment: FRET, competitor EGFA peptide
T9 construct: also called cyno PCSK9; cPCSK9
Description: as §4

cynomolgus monkey PCSK9 [27] = molecular target: T9, cynomolgus monkey PCSK9; experiment: SPR ProteOn, 25 C
Protocol: as §3

cynomolgus monkey PCSK9 [28] = molecular target: T9, cynomolgus monkey PCSK9; experiment: SPR ProteOn, PCSK9 immobilized, 25 C
Protocol: as §3

[29] = molecular target: T6, human PCSK9 (proprotein convertase …); experiment: ITC, 37 C
Protocol: as §2

[30] = molecular target: T6, human PCSK9 (proprotein convertase …); experiment: SPR Biacore, ATI-1081 captured on anti-His antibody, hPCSK9 in flow, 25 C
Protocol: The binding characteristics were characterized by Surface Plasmon Resonance (SPR). […] […] Duplicate experiments for PRD460 were performed on different days. Kinetic determinations were performed at 25° C. Evaluation of the kinetic parameters was performed using the 1:1 Binding algorithm on the BIACORE® Evaluation software.

rhesus serum albumin [31] = molecular target: T2, rhesus serum albumin; experiment: SPR (Biacore), albumin captured on chip, SABA in flow; n = 4
Protocol: as §1

human serum albumin [32] = molecular target: T1, human serum albumin; experiment: SPR (Biacore), albumin captured on chip, SABA in flow; n = 9
Protocol: as §1

Kd (human serum albumin [1]): 33.8 nM | Kd (rhesus serum albumin [2]): 63.6 nM | koff (rhesus serum albumin [2]): 0.000442 s⁻¹ | koff (human serum albumin [3]): 0.000171 s⁻¹
B1: SABA2.1 (designed binder)
chain: MGVSDVPRDLEVVAATPTSLLISWPKYDKTGHYYRITYGETGGNSPVQEFTVPTRQTTATISGLKPGVDYTITVYAVSKDDYYPHEHRPISINYRTEIDKPSQHHHHHH

fold increase in affinity at 37 C against 25 C (human serum albumin [4]): ~2 fold | affinity at 37 C relative to 25 C (rhesus serum albumin [5]): 0.5 fold | binding result (murine serum albumin): no binding (tested: up to 1 µM) | binding result (rat serum albumin): no binding (tested: up to 1 µM)
B2: SABA1.2 (designed binder)
chain: MGVSDVPRDLEVVAATPTSLLISWHSYYEQNSYYRITYGETGGNSPVQEFTVPYSQTTATISGLKPGVDYTITVYAVYGSKYYYPISINYRTEIEDEDEDEDED
notes: core 1 10Fn3 with (ED)5 extension

Kd [6]: 7.4 nM | koff [6]: 0.000901 s⁻¹ | kon [6]: 126000 M⁻¹ s⁻¹ | Kd [7]: 0.223 nM | Ka [8]: 7.5e+08 M⁻¹ | Kd [8]: 1.3 nM | Stoichiometry (N) [8]: 0.857 | ΔH [8]: -29.9 kcal/mol | ΔS [8]: -55.8 cal/mol °C
B3: ATI001174 (designed binder)
chain: MGVSDVPRDLEVVAATPTSLLISWVPPSDDYGYYRITYGETGGNSPVQEFTVPIGKGTATISGLKPGVDYTITVYAVEFPWPHAGYYHRPISINYRTEIEKPCQ
modifications: PEGylated on the cysteine of the C-terminal EIEKPCQ tail
notes: PEGylated, non-His-tagged cysteine mutant of 2013E01; also called ATI-1174; ATI1174

Kd (human serum albumin [9]): 412 nM | Kd (rhesus serum albumin [2]): > 1000 nM | koff (rhesus serum albumin [2]): 0.00383 s⁻¹ | koff (human serum albumin [3]): 0.000782 s⁻¹
B4: SABA4.1 (designed binder)
chain: MGVSDVPRDLEMVAATPTSLLISWEDDSYYSRYYRITYGETGGNSPVQEFTVPSDLYTATISGLKPGVDYTITVYAVTYDVTDLIMHEPISINYRTEIDKPSQHHHHHH
notes: Carries a scaffold mutation; SABA5 is the scaffold-perfect version

DiI-LDL uptake in HepG2 cells, EC50 [10]: 190 nM | percentage of PCSK9 inhibition at 75 nM [10]: 66.8% | LDLR Depletion (% inhibition at 75 nM) [11]: 66.8% | LDLR Depletion EC50 [11]: > 200 nM | Kd [12]: 26 nM | Kd [13]: 1.6 nM | Kd [14]: 14.4 nM | Kd [15]: 1.58 nM | EC50 [16]: 4 nM
B5: 1459D05 (designed binder)
chain: MGVSDVPRDLEVVAATPTSLLISWPPPSHGYGYYRITYGETGGNSPVQEFTVPPGKGTATISGLKPGVDYTITVYAVEYPYKHSGYYHRPISINYRTEIDKPSQHHHHHH
notes: also called ATI000891; ATI-891

Kd [6]: 0.293 nM | koff [6]: 8.2e-05 s⁻¹ | kon [6]: 286000 M⁻¹ s⁻¹ | IC50 [17]: 1.4 nM | EC50 [18]: 2.7 nM | IC50 [18]: 2.7 nM | EC50 (cynomolgus monkey PCSK9 [19]): 17.2 nM | EC50 [20]: 2 nM | LDLR Depletion EC50 [21]: 12 nM | Kd [22]: 0.08 nM | Kd (cynomolgus monkey PCSK9 [23]): 23.1 nM | Kd [24]: 0.079 nM | koff [24]: 9.76e-06 s⁻¹ | kon [24]: 118000 M⁻¹ s⁻¹ | Kd (cynomolgus monkey PCSK9 [25]): 23.1 nM | koff (cynomolgus monkey PCSK9 [25]): 0.0044 s⁻¹ | kon (cynomolgus monkey PCSK9 [25]): 190000 M⁻¹ s⁻¹
B6: 2011H05 (designed binder)
chain: B5 chain with P25V, P27S, G30A, P54V, K56V, P80A, Y81F, K82E, H83G, S84A
notes: Anti-PCSK9 Adnectin, His6-tagged; also called ATI001091

Kd [6]: 0.255 nM | koff [6]: 0.00014 s⁻¹ | kon [6]: 532000 M⁻¹ s⁻¹ | IC50 [17]: 2 nM | EC50 [18]: 1.2 nM | IC50 [18]: 1.2 nM | EC50 (cynomolgus monkey PCSK9 [19]): 26.6 nM | EC50 [20]: 2.5 nM | LDLR Depletion EC50 [21]: 10 nM | Kd [22]: 0.09 nM | Kd (cynomolgus monkey PCSK9 [23]): 15 nM | Kd [24]: 0.094 nM | koff [24]: 5.08e-05 s⁻¹ | kon [24]: 541000 M⁻¹ s⁻¹ | Kd (cynomolgus monkey PCSK9 [25]): 15 nM | koff (cynomolgus monkey PCSK9 [25]): 0.007 s⁻¹ | kon (cynomolgus monkey PCSK9 [25]): 465000 M⁻¹ s⁻¹
B7: 1922G04 (designed binder)
chain: B5 chain with P25R, G30A, P54I, Y81W, H83G
notes: Anti-PCSK9 Adnectin, His6-tagged; also called ATI001057; ATI-1057

IC50 [17]: 1.2 nM | EC50 [18]: 2.1 nM | IC50 [18]: 2.1 nM | EC50 (cynomolgus monkey PCSK9 [26]): 70.3 nM | EC50 [20]: 1.4 nM | LDLR Depletion EC50 [21]: 12 nM | Kd [22]: 0.25 nM | Kd (cynomolgus monkey PCSK9 [27]): 24.3 nM | Kd [24]: 0.251 nM | koff [24]: 6.47e-05 s⁻¹ | kon [24]: 259000 M⁻¹ s⁻¹ | Kd (cynomolgus monkey PCSK9 [28]): 24.3 nM | koff (cynomolgus monkey PCSK9 [28]): 0.00475 s⁻¹ | kon (cynomolgus monkey PCSK9 [28]): 195000 M⁻¹ s⁻¹
B8: 2012A04 (designed binder)
chain: B5 chain with P25R, H29N, Y31H, P54V, G55N, K56E, Y79F, Y81F, H83W
notes: Anti-PCSK9 Adnectin, His6-tagged

koff [6]: 0.000837 s⁻¹ and 0.000349 s⁻¹ | kon [6]: 546000 M⁻¹ s⁻¹ and 829000 M⁻¹ s⁻¹ | IC50 [17]: 1.8 nM | Ka [29]: 7.1e+08 M⁻¹ | Kd [29]: 1.4 nM | Stoichiometry (N) [29]: 0.926 | ΔH [29]: -26.6 kcal/mol | ΔS [29]: -45.4 cal/mol °C | EC50 [18]: 1.6 nM | IC50 [18]: 1.6 nM | EC50 (cynomolgus monkey PCSK9 [26]): 12.5 nM | EC50 [20]: 0.9 nM | Kd [7]: 0.0695 nM | Kd [30]: 6.7 nM | koff [30]: 0.000245 s⁻¹ | kon [30]: 36500 M⁻¹ s⁻¹ | LDLR Depletion EC50 [21]: 10 nM | Kd [22]: 0.29 nM | Kd (cynomolgus monkey PCSK9 [27]): 8.1 nM | Kd (cynomolgus monkey PCSK9 [28]): 8.1 nM | koff (cynomolgus monkey PCSK9 [28]): 0.00177 s⁻¹ | kon (cynomolgus monkey PCSK9 [28]): 219000 M⁻¹ s⁻¹
B9: 2013E01 (designed binder)
chain: B5 chain with P25V, H29D, G30D, P54I, Y79F, Y81W, K82P, S84A
notes: Anti-PCSK9 Adnectin, His6-tagged, unmodified (not PEGylated); also called ATI001081

Kd (rhesus serum albumin [31]): 778 nM | koff (rhesus serum albumin [2]): 0.00545 s⁻¹ | koff (human serum albumin [3]): 0.000457 s⁻¹ | Kd (human serum albumin [32]): 47.2 nM
B10: SABA1.1 (designed binder)
chain: MGVSDVPRDLEVVAATPTSLLISWHSYYEQNSYYRITYGETGGNSPVQEFTVPYSQTTATISGLKPGVDYTITVYAVYGSKYYYPISINYRTEIDKPSQHHHHHH
notes: also called clone 1318H04
